# Experimental data taken from the supplement of paper PMC10724198.
# ± gives the standard deviation of the averaged measurements.
# System: Saccharomyces cerevisiae
# Experiment: protein stability index of tFT-peptide fusion (C-terminal peptide) (PSI (0-1 scale)); higher = more stable (slower turnover)
# Details: genetic background: wild type; temperature: 30 C
# 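Further: PSI is a weighted mean of sequencing reads over stability bins, variants kept only with over 10 reads, mCherry proximal and sfGFP distal, peptide attached via GGGS linker.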
row,Sequence,protein stability index
1,PPPAPDRATIRR,0.673 ± 0.068
2,WLVSPPTPFPLP,0.6422 ± 0.0039
3,KPKHNKKILEKK,0.671 ± 0.037
4,SLIPLLPPRSLS,0.594 ± 0.1
5,TLFTRRSIMKGN,0.62 ± 0.068
6,FAPTRAAPVTVS,0.5712 ± 0.0057
7,PPSPALPPSLPV,0.682 ± 0.032
8,RGWGWGRKVSVG,0.62 ± 0.069
9,WVHTLHARIGCQ,0.625 ± 0.046
10,ILQGENKEGINT,0.668 ± 0.035
11,PSLFHHWSVLSP,0.785 ± 0.1
12,KWLAQLEHEKYN,0.696 ± 0.025
13,KGDCGGRGCGRH,0.682 ± 0.0076
14,WHIEGFGQYYSL,0.736 ± 0.019
15,YGILSVRGSLSR,0.76 ± 0.065
16,PPPHSPVPPSQS,0.68 ± 0.022
17,CSRDWRCNVRPV,0.715 ± 0.022
18,RSSNRRAIRSHD,0.7106 ± 0.0019
19,GREEKQGAENRT,0.65 ± 0.018
20,VLLRHRPKYACR,0.645 ± 0.022
21,TRSADGFLGVMV,0.739 ± 0.0092
22,IRGAARRRTQGY,0.731 ± 0.038
23,NVAKTTTRHNRP,0.718 ± 0.011
24,CFSMGKRGLRGR,0.686 ± 0.026
25,TQKKQKRKDQQR,0.654 ± 0.01
26,CCVSFFISFGGR,0.554 ± 0.03

row,Sequence,protein stability index
1,AVLFDQLGGRWR,0.614 ± 0.061
2,LPRTPPPLAHGP,0.688 ± 0.041
3,LWAYRFAAGEVH,0.589 ± 0.08
4,FRVEWKPLYHGI,0.623 ± 0.037
5,GSSPPSARVRLF,0.763 ± 0.03
6,LIGMCEAGCSPF,0.727 ± 0.012
7,KTKGPKSKPKRK,0.6563 ± 0.0046
8,HLHGKTERPSHL,0.811 ± 0.058
9,PQPNSSEPTSQK,0.722 ± 0.011
10,VGCPLSLDAPEG,0.687 ± 0.029
11,TDWCPQSCVCSL,0.647 ± 0.051
12,PPRAPSPLPPPL,0.704 ± 0.027
13,KQKQRKERIKRK,0.688 ± 0.069
14,RVVGCPPLLLPP,0.639 ± 0.035
15,KHSTTSRCVWYT,0.627 ± 0.13
16,PGSLSLSPLLPS,0.758 ± 0.037
17,FGARVWVGRVGG,0.657 ± 0.069
18,PPPPPPPPALSS,0.7163 ± 0.0034
19,FWGQNKVCLSCQ,0.571 ± 0.09
20,LLFRSLASMEFP,0.6934 ± 0.0062
21,CSATVLSNCTFP,0.687 ± 0.051
22,LFSHGFLYILGG,0.696 ± 0.017
23,RCSLLVVPHSPP,0.717 ± 0.04
24,SPGNLPMSSSLL,0.686 ± 0.022
25,VGMGRAPGPDPA,0.646 ± 0.0093
26,PRRFPFRHATSP,0.635 ± 0.084

row,Sequence,protein stability index
1,KKLGLRLTFLHC,0.564 ± 0.043
2,VLSISINRGVRI,0.664 ± 0.0039
3,GSNQYLNNTYLI,0.64768 ± 0.00039
4,PRRSNPQPTHIR,0.708 ± 0.038
5,PRPAAPSPPPLP,0.588 ± 0.014
6,EVKKTFCFSKDI,0.672 ± 0.011
7,FDDSNSRTGPVQ,0.692 ± 0.11
8,LVAHLSTAPPPP,0.675 ± 0.0061
9,VVCLGGVVLPRV,0.65788 ± 0.00012
10,PLSLPLSLLCPP,0.698 ± 0.051
11,LRSAPTLFTRPY,0.677 ± 0.0091
12,AGLESFFHYSYF,0.7487 ± 0.0002
13,LTVLCWVLCYLL,0.527 ± 0.026
14,CGGSCLQDGGWA,0.787 ± 0.1
15,DMWSMFSFLYYV,0.507 ± 0.012
16,SSRPPLPPPRIH,0.618 ± 0.017
17,VFQVFSVGTCSG,0.6451 ± 0.0039
18,TASAGLVAAATI,0.668 ± 0.034
19,CGTPDLGLLRAT,0.74 ± 0.054
20,GGGVRWGVGRGG,0.652 ± 0.025
21,LSYSSLGLRFSY,0.579 ± 0.02
22,TRLDLIDSLRHL,0.731 ± 0.044
23,PNLPRHPFPPSS,0.74 ± 0.011
24,GPTPSVKGDRDT,0.632 ± 0.044
25,RFAGLRDVGCFL,0.695 ± 0.034
26,PFAYFSRFLYFP,0.633 ± 0.03

row,Sequence,protein stability index
1,LCTCRLSDVRIG,0.6748 ± 0.0033
2,RACDQPSGVCNV,0.669 ± 0.038
3,LISSPKIHLRTY,0.742 ± 0.14
4,PPPPPSSPPPPA,0.639 ± 0.099
5,LRGTEMMSTSVV,0.656 ± 0.085
6,KPRFRATPRQTT,0.713 ± 0.037
7,DGTRVSFLGHKG,0.665 ± 0.053
8,KIKESIKIKKKR,0.6789 ± 0.0027
9,GFSKNCSCVVLC,0.559 ± 0.029
10,GGVCVGLWGGRG,0.709 ± 0.043
11,QYKRFYGSLVNG,0.608 ± 0.047
12,LPRTALHSPSPY,0.723 ± 0.082
13,HSHIPPNLTYCP,0.69396 ± 0.00029
14,CRSRRPFGSDPI,0.69 ± 0.019
15,IATPQNPRRTKA,0.714 ± 0.045
16,SVKTGAAKDRLE,0.6929 ± 0.003
17,GDGLGFNRPNGR,0.659 ± 0.025
18,WGGAGRVWVLGP,0.696 ± 0.019
19,SDFLTYAEARLD,0.72 ± 0.12
20,PPPYPSYPPRPN,0.724 ± 0.032
21,PSFRTGLPPSDP,0.681 ± 0.038
22,SFILRRISSAIS,0.645 ± 0.014
23,RGPRSSGRKGIR,0.676 ± 0.042
24,RTQMLIIDKRNS,0.6437 ± 0.0028
25,KRNKITKKDRIN,0.613 ± 0.031
26,RRVCLIASLWGC,0.625 ± 0.023

row,Sequence,protein stability index
1,GDSSRVGPVGRA,0.714
2,LPSPRIPLTSQS,0.638 ± 0.031
3,TFSPPLSSPPGP,0.706 ± 0.032
4,QCSVFSSPPRAL,0.723 ± 0.1
5,ILCPIKHKRKGS,0.703 ± 0.064
6,GEEEGSQGGCEV,0.6611 ± 0.0061
7,KARNIVESGKTQ,0.722 ± 0.038
8,ISEGNNQNLSQT,0.689 ± 0.011
9,RACLDRNNLDLG,0.605 ± 0.075
10,IFWRGVVDVCSG,0.584 ± 0.065
11,TPCSRMRPSLLF,0.709 ± 0.11
12,SPLEFPLLPSGV,0.7 ± 0.064
13,LSRPPSRPLPLP,0.677 ± 0.04
14,QGRTWGGCWGRG,0.649 ± 0.012
15,DVQISSGRGVCS,0.672 ± 0.054
16,PPPPTPLPPPDP,0.68 ± 0.035
17,PLHSPPSRPCQL,0.691 ± 0.065
18,PLPLPLPSRPRP,0.653 ± 0.044
19,GVNGSGFLSEVI,0.6795 ± 0.0012
20,SVTPSPPPSRPF,0.678 ± 0.057
21,MSKGKKKGVKRK,0.703 ± 0.013
22,SMGLYRDVVSGH,0.665 ± 0.029
23,RLGRATLLLLFF,0.572 ± 0.12
24,PSPLPPPLPPPV,0.675 ± 0.043
25,PPPSPSPPPSSP,0.698 ± 0.039
26,RGCRLRCSLPGR,0.669 ± 0.056

row,Sequence,protein stability index
1,GVCGGVGGWGVA,0.698 ± 0.019
2,RCGPPTAPSLDP,0.619 ± 0.008
3,SVCLLKSWHERQ,0.725 ± 0.033
4,DGGGGGRAPRVR,0.726 ± 0.1
5,FSPLARMGSGTL,0.701 ± 0.0073
6,CTIAPSIFFTRG,0.704 ± 0.11
7,VRLRLGLLAGWS,0.633 ± 0.012
8,RKTQKIEQKQKE,0.756 ± 0.076
9,KGKNTEKEEEEK,0.685 ± 0.019
10,NNTVRTPKLSIE,0.71584 ± 0.00044
11,GRRDVTFGTAFF,0.753 ± 0.052
12,PGPPPPPPALLP,0.658 ± 0.056
13,LPPLLGPSPCPP,0.604 ± 0.015
14,AVPRPSPPPPPL,0.674 ± 0.0086
15,YLCARGIFTLYV,0.602 ± 0.034
16,STSSPSSSTLLP,0.719 ± 0.031
17,PLPPLPSTHPTL,0.698 ± 0.035
18,LPPALAPLPPPL,0.572 ± 0.021
19,PPLPPSPSVSPR,0.746 ± 0.021
20,GGPGGGRPGPRA,0.6972 ± 0.0026
21,ISLTSYVCGRVL,0.648 ± 0.014
22,LRQVGTASSLRR,0.717 ± 0.045
23,FGLPGGVTVVTW,0.757 ± 0.14
24,VCGYLSIVIWLR,0.423 ± 0.24
25,IRPPPPPPPRAA,0.59 ± 0.07
26,LPLHAPPPHRHP,0.683 ± 0.013

row,Sequence,protein stability index
1,RKFLCKSPIECS,0.574 ± 0.015
2,KATNLNKVRRWE,0.693 ± 0.048
3,AVVVDWLAQVLH,0.757 ± 0.068
4,PLPHPPPPPPLP,0.768 ± 0.026
5,LSVTGGRFSVSG,0.7174 ± 0.0063
6,HGLPPPLPPLRS,0.689 ± 0.019
7,SSFPPPPAAPPP,0.667 ± 0.041
8,GESPSRVRSSAG,0.694 ± 0.036
9,PLPPLPPPLPAP,0.705 ± 0.052
10,FGYCFYRFHLQR,0.666 ± 0.049
11,GFINYDHKVIRI,0.77 ± 0.023
12,RLGECSRKSYHT,0.692 ± 0.024
13,SPLPPPLCPPPL,0.608 ± 0.034
14,YTKFASLKRHTQ,0.636 ± 0.034
15,SMFFNSIDATRW,0.721 ± 0.053
16,KEWGGEGRDAWG,0.6834 ± 0.0061
17,LSLLPFLRPPPI,0.774 ± 0.043
18,FSYCFRLLPSSL,0.558 ± 0.096
19,GAIKKTQGGGYK,0.69 ± 0.019
20,PFSLIFSFFSEV,0.7487 ± 0.0047
21,FCLLSCDTFSSS,0.6318 ± 0.0042
22,PPPSRPSHPPPA,0.628 ± 0.015
23,GLGWGGVGVAGV,0.705 ± 0.076
24,PLPPDPPCPPPP,0.651 ± 0.072
25,VLADIGSAGIGR,0.711 ± 0.014
26,INIQKKKKIQHI,0.508 ± 0.031

row,Sequence,protein stability index
1,PPTPPPPSLTPP,0.746 ± 0.027
2,NLRQKQKKIKKT,0.642 ± 0.041
3,SFGSPLFFFPFL,0.736 ± 0.036
4,RICTLCRGGRTP,0.673 ± 0.03
5,GGGIERYCWLQI,0.708 ± 0.067
6,GSIWGVGWGQGV,0.682 ± 0.11
7,PPFPLACPPLLF,0.657 ± 0.11
8,LVLPCLLLFPPS,0.711 ± 0.047
9,RRRRSITEHRSS,0.69279 ± 0.00018
10,KNKKEKKKVKRT,0.687 ± 0.026
11,PPHGRKRRGKEP,0.776 ± 0.16
12,RGRGKVGLWEGS,0.669 ± 0.067
13,FLFHAIGTCRLC,0.671 ± 0.015
14,GPDSSYLITPRR,0.755 ± 0.065
15,ERYLCVGIAHGP,0.706 ± 0.02
16,SLFHTSLAYSFF,0.7143 ± 0.0066
17,PMPGATDCQRGC,0.615 ± 0.053
18,LADRTREFSNPA,0.6466 ± 0.0054
19,TVTPAARTWHGR,0.67782 ± 0.00032
20,GWHVGCGCTVFR,0.671 ± 0.061
